# The supplement of paper PMC11246515
# ± gives the standard deviation of the averaged measurements.
# Assay: total protein half-life in vivo (active degradation + dilution); higher = more stable protein
# [1] = E. coli NCM3722 delta-clpP, growth: N-lim chemostat, doubling time 6 h
# [2] = E. coli NCM3722 delta-hslV, growth: N-lim chemostat, doubling time 6 h
# [3] = E. coli NCM3722 delta-lon, growth: N-lim chemostat, doubling time 6 h
# [4] = E. coli NCM3722 delta-smpB, growth: N-lim chemostat, doubling time 6 h
# [5] = wild type E. coli NCM3722, growth: C-lim chemostat, doubling time 3 h
# [6] = wild type E. coli NCM3722, growth: C-lim chemostat, doubling time 6 h
# [7] = wild type E. coli NCM3722, growth: C-lim chemostat, doubling time 12 h
# [8] = wild type E. coli NCM3722, growth: N-lim chemostat, doubling time 6 h
# [9] = wild type E. coli NCM3722, growth: N-lim chemostat, doubling time 12 h
# [10] = wild type E. coli NCM3722, growth: P-lim chemostat, doubling time 6 h
# [11] = wild type E. coli NCM3722, growth: P-lim chemostat, doubling time 12 h
# [12] = E. coli NCM3722 delta-clpP delta-lon delta-hslV, growth: N-lim chemostat, doubling time 6 h
Sequence,total protein half-life in vivo [1] [h],total protein half-life in vivo [2] [h],total protein half-life in vivo [3] [h],total protein half-life in vivo [4] [h],total protein half-life in vivo [5] [h],total protein half-life in vivo [6] [h],total protein half-life in vivo [7] [h],total protein half-life in vivo [8] [h],total protein half-life in vivo [9] [h],total protein half-life in vivo [10] [h],total protein half-life in vivo [11] [h],total protein half-life in vivo [12] [h]
MATYYSNDFRAGLKIMLDGEPYAVEASEFVKPGKGQAFARVKLRRLLTGTRVEKTFKSTDSAEGADVVDMNLTYLYNDGEFWHFMNNETFEQLSADAKAIGDNAKWLLDQAECIVTLWNGQPISVTPPNFVELEIVDTDPGLKGDTAGTGGKPATLSTGAVVKVPLFVQIGEVIKVDTRSGEYVSRVK [P0A6N4],4.46 ± 0.85,4.41 ± 0.21,5.35 ± 0.54,4.285 ± 0.022,2.91 ± 0.13,4.775 ± 0.023,8.29 ± 0.57,4.24 ± 0.074,5.76 ± 0.19,4.32 ± 0.1,8.07 ± 0.47,
MAVHLLIVDALNLIRRIHAVQGSPCVETCQHALDQLIMHSQPTHAVAVFDDENRSSGWRHQRLPDYKAGRPPMPEELHDEMPALRAAFEQRGVPCWSTSGNEADDLAATLAVKVTQAGHQATIVSTDKGYCQLLSPTLRIRDYFQKRWLDAPFIDKEFGVQPQQLPDYWGLAGISSSKVPGVAGIGPKSATQLLVEFQSLEGIYENLDAVAEKWRKKLETHKEMAFLCRDIARLQTDLHIDGNLQQLRLVR,4.23 ± 0.28,4.29,5.14 ± 0.59,3.86 ± 0.59,2.66 ± 0.54,,10.7 ± 0.93,4.2 ± 0.5,8.02,5.06 ± 0.52,10.7 ± 1.7,4.94 ± 0.096
MAVNLLKKNSLALVASLLLAGHVQATELLNSSYDVSRELFAALNPPFEQQWAKDNGGDKLTIKQSHAGSSKQALAILQGLKADVVTYNQVTDVQILHDKGKLIPADWQSRLPNNSSPFYSTMGFLVRKGNPKNIHDWNDLVRSDVKLIFPNPKTSGNARYTYLAAWGAADKADGGDKGKTEQFMTQFLKNVEVFDTGGRGATTTFAERGLGDVLISFESEVNNIRKQYEAQGFEVVIPKTNILAEFPVAWVDKNVQANGTEKAAKAYLNWLYSPQAQTIITDYYYRVNNPEVMDKLKDKFPQTELFRVEDKFGSWPEVMKTHFTSGGELDKLLAAGRN,5.26 ± 0.17,6.24 ± 0.08,6.861 ± 0.011,5.74 ± 0.07,3.3 ± 0.27,6.1057 ± 0.00027,10 ± 0.37,6.338 ± 0.056,12.8 ± 0.46,6.18 ± 0.1,12.4 ± 0.31,4.09 ± 0.2
MAWNQPGNNGQDRDPWGSSKPGGNSEGNGNKGGRDQGPPDLDDIFRKLSKKLGGLGGGKGTGSGGGSSSQGPRPQLGGRVVTIAAAAIVIIWAASGFYTIKEAERGVVTRFGKFSHLVEPGLNWKPTFIDEVKPVNVEAVRELAASGVMLTSDENVVRVEMNVQYRVTNPEKYLYSVTSPDDSLRQATDSALRGVIGKYTMDRILTEGRTVIRSDTQRELEETIRPYDMGITLLDVNFQAARPPEEVKAAFDDAIAARENEQQYIREAEAYTNEVQPRANGQAQRILEEARAYKAQTILEAQGEVARFAKLLPEYKAAPEITRERLYIETMEKVLGNTRKVLVNDKGGNLMVLPLDQMLKGGNAPAAKSDNGASNLLRLPPASSSTTSGASNTSSTSQGDIMDQRRANAQRNDYQRQGE [P0ABC7],,6.71 ± 0.23,6.55 ± 0.23,6.38 ± 0.49,2.99 ± 0.1,6.35 ± 0.6,13.1 ± 1,6.52 ± 0.65,13.8 ± 0.55,6.06 ± 0.31,13.98 ± 0.078,7 ± 0.75
MAYKHIGVAISGNEEDALLVNKALELARHNDAHLTLIHIDDGLSELYPGIYFPATEDILQLLKNKSDNKLYKLTKNIQWPKTKLRIERGEMPETLLEIMQKEQCDLLVCGHHHSFINRLMPAYRGMINKMSADLLIVPFIDK [P0AAB8],3.79 ± 0.29,3.73,4.56 ± 0.14,2.7 ± 0.18,2.99,5.49,9.51 ± 0.66,3.69,5.52 ± 0.12,4.66 ± 0.43,10.7 ± 0.12,4.18 ± 0.41
MAYRSAPLYEDVIWRTHLQPQDPTLAQAVRATIAKHREHLLEFIRLDEPAPLNAMTLAQWSSPNVLSSLLAVYSDHIYRNQPMMIRENKPLISLWAQWYIGLMVPPLMLALLTQEKALDVSPEHFHAEFHETGRVACFWVDVCEDKNATPHSPQHRMETLISQALVPVVQALEATGEINGKLIWSNTGYLINWYLTEMKQLLGEATVESLRHALFFEKTLTNGEDNPLWRTVVLRDGLLVRRTCCQRYRLPDVQQCGDCTLK,,,,,,,,,,,,3.38 ± 1.1
MAYYSIGDVAERCGINPVTLRAWQRRYGLLKPQRSEGGHRLFDEEDIQRIEEIKRWISNGVPVGKVKALLETTSQDTEDDWSRLQEEMMSILRMANPAKLRARIISLGREYPVDQLINHVYLPVRQRLVLDHNTSRIMSSMFDGALIEYAATSLFEMRRKPGKEAILMAWNVEERARLWLEAWRLSLSGWHISVLADPIESPRPELFPTQTLIVWTGMAPTRRQNELLQHWGEQGYKVIFHAP,3.95 ± 2.5,1.93,,1.79 ± 0.14,2.13 ± 0.29,3.02 ± 0.39,4.42 ± 0.35,2 ± 0.16,2.72 ± 0.041,1.39 ± 0.094,5.43,4.63 ± 0.56
MCELLGMSANVPTDICFSFTGLVQRGGGTGPHKDGWGITFYEGKGCRTFKDPQPSFNSPIAKLVQDYPIKSCSVVAHIRQANRGEVALENTHPFTRELWGRNWTYAHNGQLTGYKSLETGNFRPVGETDSEKAFCWLLHKLTQRYPRTPGNMAAVFKYIASLADELRQKGVFNMLLSDGRYVMAYCSTNLHWITRRAPFGVATLLDQDVEIDFSSQTTPNDVVTVIATQPLTGNETWQKIMPGEWRLFCLGERVV,5.84 ± 0.22,5.68 ± 0.45,6.32 ± 0.5,5.67 ± 0.13,3.37 ± 0.54,6.2 ± 0.066,12.6 ± 1.6,5.695 ± 0.045,12.2 ± 1.4,5.83 ± 0.3,12.5 ± 0.73,6.35 ± 0.88
MCGIVGAIAQRDVAEILLEGLRRLEYRGYDSAGLAVVDAEGHMTRLRRLGKVQMLAQAAEEHPLHGGTGIAHTRWATHGEPSEVNAHPHVSEHIVVVHNGIIENHEPLREELKARGYTFVSETDTEVIAHLVNWELKQGGTLREAVLRAIPQLRGAYGTVIMDSRHPDTLLAARSGSPLVIGLGMGENFIASDQLALLPVTRRFIFLEEGDIAEITRRSVNIFDKTGAEVKRQDIESNLQYDAGDKGIYRHYMQKEIYEQPNAIKNTLTGRISHGQVDLSELGPNADELLSKVEHIQILACGTSYNSGMVSRYWFESLAGIPCDVEIASEFRYRKSAVRRNSLMITLSQSGETADTLAGLRLSKELGYLGSLAICNVPGSSLVRESDLALMTNAGTEIGVASTKAFTTQLTVLLMLVAKLSRLKGLDASIEHDIVHGLQALPSRIEQMLSQDKRIEALAEDFSDKHHALFLGRGDQYPIALEGALKLKEISYIHAEAYAAGELKHGPLALIDADMPVIVVAPNNELLEKLKSNIEEVRARGGQLYVFADQDAGFVSSDNMHIIEMPHVEEVIAPIFYTVPLQLLAYHVALIKGTDVDQPRNLAKSVTVE,5.07 ± 1.3,4 ± 0.11,4.01 ± 0.15,3.98 ± 0.33,3.14 ± 0.23,5.37 ± 0.3,9.64 ± 0.98,4.14 ± 0.067,6.35 ± 0.37,5.8 ± 0.14,11.3 ± 0.96,5.12 ± 0.77
MCGIVGIAGVMPVNQSIYDALTVLQHRGQDAAGIITIDANNCFRLRKANGLVSDVFEARHMQRLQGNMGIGHVRYPTAGSSSASEAQPFYVNSPYGITLAHNGNLTNAHELRKKLFEEKRRHINTTSDSEILLNIFASELDNFRHYPLEADNIFAAIAATNRLIRGAYACVAMIIGHGMVAFRDPNGIRPLVLGKRDIDENRTEYMVASESVALDTLGFDFLRDVAPGEAIYITEEGQLFTRQCADNPVSNPCLFEYVYFARPDSFIDKISVYSARVNMGTKLGEKIAREWEDLDIDVVIPIPETSCDIALEIARILGKPYRQGFVKNRYVGRTFIMPGQQLRRKSVRRKLNANRAEFRDKNVLLVDDSIVRGTTSEQIIEMAREAGAKKVYLASAAPEIRFPNVYGIDMPSATELIAHGREVDEIRQIIGADGLIFQDLNDLIDAVRAENPDIQQFECSVFNGVYVTKDVDQGYLDFLDTLRNDDAKAVQRQNEVENLEMHNEG [P0AG16],4.19 ± 0.24,2.31 ± 0.34,2.37 ± 0.23,2.13 ± 0.17,2.301 ± 0.0058,4.01 ± 0.4,5.59 ± 0.33,2.25 ± 0.18,2.8937 ± 0.00088,3.6 ± 0.23,6.17 ± 0.076,5.35 ± 1.5
MCSIFGVFDIKTDAVELRKKALELSRLMRHRGPDWSGIYASDNAILAHERLSIVDVNAGAQPLYNQQKTHVLAVNGEIYNHQALRAEYGDRYQFQTGSDCEVILALYQEKGPEFLDDLQGMFAFALYDSEKDAYLIGRDHLGIIPLYMGYDEHGQLYVASEMKALVPVCRTIKEFPAGSYLWSQDGEIRSYYHRDWFDYDAVKDNVTDKNELRQALEDSVKSHLMSDVPYGVLLSGGLDSSIISAITKKYAARRVEDQERSEAWWPQLHSFAVGLPGSPDLKAAQEVANHLGTVHHEIHFTVQEGLDAIRDVIYHIETYDVTTIRASTPMYLMSRKIKAMGIKMVLSGEGSDEVFGGYLYFHKAPNAKELHEETVRKLLALHMYDCARANKAMSAWGVEARVPFLDKKFLDVAMRINPQDKMCGNGKMEKHILRECFEAYLPASVAWRQKEQFSDGVGYSWIDTLKEVAAQQVSDQQLETARFRFPYNTPTSKEAYLYREIFEELFPLPSAAECVPGGPSVACSSAKAIEWDEAFKKMDDPSGRAVGVHQSAYK,2.71 ± 0.25,2.84 ± 0.048,3.181 ± 0.025,2.55 ± 0.069,2.87 ± 0.069,4.97 ± 0.21,7.86 ± 0.95,2.69 ± 0.025,3.857 ± 0.0049,5.61 ± 0.3,10.4 ± 0.4,3.62 ± 0.55
MDAKQRIARRVAQELRDGDIVNLGIGLPTMVANYLPEGIHITLQSENGFLGLGPVTTAHPDLVNAGGQPCGVLPGAAMFDSAMSFALIRGGHIDACVLGGLQVDEEANLANWVVPGKMVPGMGGAMDLVTGSRKVIIAMEHCAKDGSAKILRRCTMPLTAQHAVHMLVTELAVFRFIDGKMWLTEIADGCDLATVRAKTEARFEVAADLNTQRGDL,,,0.206,,,,,1.83,,,,
MDFPQQLEACVKQANQALSRFIAPLPFQNTPVVETMQYGALLGGKRLRPFLVYATGHMFGVSTNTLDAPAAAVECIHAYSLIHDDLPAMDDDDLRRGLPTCHVKFGEANAILAGDALQTLAFSILSDADMPEVSDRDRISMISELASASGIAGMCGGQALDLDAEGKHVPLDALERIHRHKTGALIRAAVRLGALSAGDKGRRALPVLDKYAESIGLAFQVQDDILDVVGDTATLGKRQGADQQLGKSTYPALLGLEQARKKARDLIDDARQSLKQLAEQSLDTSALEALADYIIQRNK,5.14 ± 0.67,4.44 ± 0.056,4.579 ± 0.024,4.63 ± 0.38,3.14 ± 0.08,5.849 ± 0.0072,11.5 ± 0.9,4.46 ± 0.66,6.952 ± 0.057,5.75 ± 0.13,11.2 ± 0.6,4.5 ± 0.14
MDFPQRVNGWALYAHPCFQETYDALVAEVETLKGKDPENYQRKAATKLLAVVHKVIEEHITVNPSSPAFRHGKSLGSGKNKDWSRVKFGAGRYRLFFRYSEKEKVIILGWMNDENTLRTYGKKTDAYTVFSKMLKRGHPPADWETLTRETEETH,6.54,5.12,7.11 ± 0.75,5.58,3.3,> 8,10.2,6.09 ± 0.47,12.2,5.56 ± 0.21,15.6,
MDFSGKNVWVTGAGKGIGYATALAFVEAGAKVTGFDQAFTQEQYPFATEVMDVADAAQVAQVCQRLLAETERLDALVNAAGILRMGATDQLSKEDWQQTFAVNVGGAFNLFQQTMNQFRRQRGGAIVTVASDAAHTPRIGMSAYGASKAALKSLALSVGLELAGSGVRCNVVSPGSTDTDMQRTLWVSDDAEEQRIRGFGEQFKLGIPLGKIARPQEIANTILFLASDLASHITLQDIVVDGGSTLGA,,,,,3.26 ± 0.27,,,,,,,
